Measurements taken from publication PMC6035221, “Interaction between parasite-encoded JAB1/CSN5 and macrophage migration inhibitory factor proteins attenuates its proinflammatory function” (Scientific Reports, 2018).

Molecular target: T1, GST-tagged full-length EhJAB1 (Entamoeba histolytica, UniProt C4LTS3 1-318)
T1 construct: EhJAB1 of Entamoeba histolytica, EHI_050500, full length (gene of 957 base pairs; deletions count to residue 318), codon optimized; Cloned in pDEST15 and sub-cloned in pGEX-4T1; also called GST-EhJAB1; GST-JAB1; source: E. coli BL21(DE3); purified on glutathione-sepharose (BLI)
T1 sequence (looked up): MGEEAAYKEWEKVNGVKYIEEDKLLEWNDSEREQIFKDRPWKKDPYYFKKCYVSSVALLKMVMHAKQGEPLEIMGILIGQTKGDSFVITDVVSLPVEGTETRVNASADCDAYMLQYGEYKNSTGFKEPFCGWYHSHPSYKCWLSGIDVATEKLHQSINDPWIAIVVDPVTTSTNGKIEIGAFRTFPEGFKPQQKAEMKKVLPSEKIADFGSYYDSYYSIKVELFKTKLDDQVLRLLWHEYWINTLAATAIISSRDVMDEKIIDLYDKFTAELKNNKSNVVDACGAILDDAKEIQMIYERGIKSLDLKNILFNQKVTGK
Assay: BLI; GST-EhJAB1 or GST loaded on anti-GST biosensors; EhMIF 5 to 80 nM (2-fold series); 1x DPBS, 0.1% BSA, 0.02% Tween 20; association 600 s, dissociation 600 s
Conditions: both partners purified

B1: Entamoeba histolytica MIF (EhMIF), recombinant (natural protein)
chain: MPHALITLSADITEEIKKEIAHESMKILSEVIGKPISYCATQVVTSVGGFGGKIVKSAFIDIKSISGLKGKQEGLSDRYCKLLEQKAGIEGGNIYLNFTEMTGNNWGYDHSTF
Kd: 38.6 nM
